Results reported in article PMC8268124, “Structure and Function of Piezophilic Hyperthermophilic Pyrococcus yayanosii pApase” (International Journal of Molecular Sciences, 2021).

B1: PyapApase (Pyrococcus yayanosii CH1) (protein)
chain: MLALIIHHWDTDGITTAALLVRALELGDFKNMTPPIGEFRFDGKIWAAIERADKLYVLDLNLPQEVEKVPVETLFIDHHIQPRIKNPRVRQVNPALEGKHYPSASLVVSEHFGIFNAWSALGAVGDIGEKAFELSRVEELLKGEGLSREDALKLVELIDSNYIVMDRMAVEEALHVLLNYELRELLEYEPWIRRVEAIKEAVEEVMSSVEERNGFAIVDFESPFNIISKVARKLVWEKGYRGAVVVNRNFHGKAQVYFRVSPKEAERISVLTIIGKLRGLGVNAGGKREVIGCICERGKLDEVLSVIDAYLG
B2: PyapApase (Pyrococcus yayanosii CH1; G285D) (protein)
chain: MLALIIHHWDTDGITTAALLVRALELGDFKNMTPPIGEFRFDGKIWAAIERADKLYVLDLNLPQEVEKVPVETLFIDHHIQPRIKNPRVRQVNPALEGKHYPSASLVVSEHFGIFNAWSALGAVGDIGEKAFELSRVEELLKGEGLSREDALKLVELIDSNYIVMDRMAVEEALHVLLNYELRELLEYEPWIRRVEAIKEAVEEVMSSVEERNGFAIVDFESPFNIISKVARKLVWEKGYRGAVVVNRNFHGKAQVYFRVSPKEAERISVLTIIGKLRGLGVNADGKREVIGCICERGKLDEVLSVIDAYLG
B3: PyapApase (Pyrococcus yayanosii CH1; R259A) (protein)
chain: MLALIIHHWDTDGITTAALLVRALELGDFKNMTPPIGEFRFDGKIWAAIERADKLYVLDLNLPQEVEKVPVETLFIDHHIQPRIKNPRVRQVNPALEGKHYPSASLVVSEHFGIFNAWSALGAVGDIGEKAFELSRVEELLKGEGLSREDALKLVELIDSNYIVMDRMAVEEALHVLLNYELRELLEYEPWIRRVEAIKEAVEEVMSSVEERNGFAIVDFESPFNIISKVARKLVWEKGYRGAVVVNRNFHGKAQVYFAVSPKEAERISVLTIIGKLRGLGVNAGGKREVIGCICERGKLDEVLSVIDAYLG
B4: PyapApase (Pyrococcus yayanosii CH1; K287A) (protein)
chain: MLALIIHHWDTDGITTAALLVRALELGDFKNMTPPIGEFRFDGKIWAAIERADKLYVLDLNLPQEVEKVPVETLFIDHHIQPRIKNPRVRQVNPALEGKHYPSASLVVSEHFGIFNAWSALGAVGDIGEKAFELSRVEELLKGEGLSREDALKLVELIDSNYIVMDRMAVEEALHVLLNYELRELLEYEPWIRRVEAIKEAVEEVMSSVEERNGFAIVDFESPFNIISKVARKLVWEKGYRGAVVVNRNFHGKAQVYFRVSPKEAERISVLTIIGKLRGLGVNAGGAREVIGCICERGKLDEVLSVIDAYLG
B5: PyapApase (Pyrococcus yayanosii CH1; D12A) (protein)
chain: MLALIIHHWDTAGITTAALLVRALELGDFKNMTPPIGEFRFDGKIWAAIERADKLYVLDLNLPQEVEKVPVETLFIDHHIQPRIKNPRVRQVNPALEGKHYPSASLVVSEHFGIFNAWSALGAVGDIGEKAFELSRVEELLKGEGLSREDALKLVELIDSNYIVMDRMAVEEALHVLLNYELRELLEYEPWIRRVEAIKEAVEEVMSSVEERNGFAIVDFESPFNIISKVARKLVWEKGYRGAVVVNRNFHGKAQVYFRVSPKEAERISVLTIIGKLRGLGVNAGGKREVIGCICERGKLDEVLSVIDAYLG

Substrate: Nc1ncnc2c1ncn2[C@@H]1O[C@H](COP(=O)(O)O)[C@@H](OP(=O)(O)O)[C@H]1O
Assay: HPLC of AMP product, initial rates, double reciprocal plot
Assay type: biochemical, Pyrococcus yayanosii
Details: 20 mM Tris-HCl pH 8.0, 50 mM NaCl, 1.0 mM MnCl2, 1.0 mM DTT, 100 µg/mL BSA, 70 °C
From the text: HPLC of AMP product, initial rates, double reciprocal plot on PyapApase

Protein | Km | kcat | kcat/Km
B1 | 272 ± 12.6 µM | – | –
B2 | 4500 ± 607.7 µM | – | –
B3 | 6000 ± 753.4 µM | – | –
B4 | 720 ± 33.1 µM | 17.10 ± 2.1 s⁻¹ | 23800 M⁻¹ s⁻¹
B5 | 790 ± 47.7 µM | 1.7 ± 0.3 s⁻¹ | 2160 M⁻¹ s⁻¹
